Test results taken from US7205387B2, “Recombinant polypeptide useful for neurotrophin receptor mediated gene delivery and as neurotrophin agonist” (Agency for Science, Technology and Research, priority 2003, dated 2007).

What was measured:
[1] = test system: PC12 (TrkA and p75^NTR positive) cells; test: Gene delivery in vitro (pCAGluc luciferase reporter), PC12 cells; format: cell-based, rat
Protocol: (§1) A PC12 (rat pheochromocytoma) cell line was obtained from ATCC (American Type Culture Collection, Manassas, Va., USA) and cultured in RPMI-1640 medium supplemented with 10% fetal bovine serum (FBS) and 5% horse serum. PC12 cells are known to express TrkA and p75^NTR receptors. A COS7 (African green monkey kidney fibroblast) cell line was obtained from ATCC and cultured in Dulbecco's modified Eagle's medium (DMEM) supplemented with 10% fetal bovine serum, 50 U/ml penicillin, and 50 μg/ml streptomycin. The cells were maintained in a 37° C., 5% CO2, humidified incubator.
(§2) To determine the transfection efficiencies of our nucleic acid delivery systems, we employ a reporter plasmid, pCAGluc (a gift from Yoshiharu Matsuura, National Institute of Infectious Diseases, Tokyo, Japan), encoding firefly luciferase under the control of the composite promoter, CAG. CAG comprises the chicken β-actin promoter and the cytomegalovirus immediate early enhancer.
TrkA-targeting gene delivery complexes were tested for transfection efficiency in vitro in PC12 (TrkA and p75^NTR positive) cells and COS7 (neurotrophin receptor negative) cells. The cells were grown to 50–70% confluency in microplate wells (24-, 48-, or 96-well plates). The gene delivery complexes were prepared according to specifications presented for each example. Transfection was accomplished by replacing the serum-enriched medium with half the usual volume of reduced-serum medium, Opti-MEM (Invitrogen), containing the gene delivery complexes. Where specifically mentioned, 100 μM of chloroquine was also added to help the complexes escape from endosomes. After four hours of incubation, the cells were restored to the normal medium volume and serum concentration, either by topping up with medium containing twice the usual serum concentration (RPMI-1640 with 20% FBS and 10% horse serum for PC12) or by completely replacing the medium.
One to two days after transfection, the cell culture medium was removed and the cells were rinsed in phosphate-buffered saline (PBS). Enough Reporter Lysis Buffer (Promega, Wisconsin, Md., USA) to cover the bottom surface was added to each well (50 μl/well for 48-well plates). After one freeze-thaw cycle, the lysates were tested for luciferase activity using the Luciferase Assay System (Promega) and a single-tube luminometer (Berthold Lumat L B 9507, Bad Wildbad, Germany). The total protein concentration of each lysate was determined using the DC Protein assay (Bio-Rad, Hercules, Calif., USA). The results were expressed in relative light units (RLU) per milligram of total protein.

[2] = test system: COS7 (neurotrophin receptor negative) cells; test: Gene delivery in vitro (pCAGluc luciferase reporter), COS7 cells; format: cell-based, African green monkey; settings: triple complexes with protamine, 0.1 μg pCAGluc/well
Protocol: as §1, §2
TrkA-targeting gene delivery complexes were tested for transfection efficiency in vitro in PC12 (TrkA and p75^NTR positive) cells and COS7 (neurotrophin receptor negative) cells. […]
One to two days after transfection, the cell culture medium was removed and the cells were rinsed in phosphate-buffered saline (PBS). […] The total protein concentration of each lysate was determined using the DC Protein assay (Bio-Rad, Hercules, Calif., USA). […]

plasmid DNA = test: DNA retardation assay (agarose gel electrophoresis); format: binding
Protocol: This assay qualitatively assesses the ability of a polypeptide or polycation to bind to DNA and thus to retard its migration (by decreasing its charge/mass ratio) through an agarose gel under electrophoresis. For a range of N/P ratios, polypeptide was added to 0.1 μg of plasmid DNA made up to 20 μl with either HEPES-buffered saline (HBS, 150 mM NaCl, 29 mM HEPES, pH 7.3) or 5% glucose. The mixtures were vortexed and incubated at room temperature for 30 minutes before being subjected to electrophoresis in a 0.8–1.0% Tris-borate-EDTA agarose gel stained with ethidium bromide for visualization under ultraviolet light.

[3] = triple complexes with protamine (2 μg per μg DNA), 0.1 μg pCAGluc/well

B1: DsbC-NL4-10K: chimeric recombinant protein: NL4-10K attached to the C-terminus of DsbC, an E. coli disulfide bond isomerase (protein)
chain: MKKGFMLFTLLAAFSGFAQADDAAIQQTLAKMGIKSSDIQPAPVAGMKTVLTNSGVLYITDDGKHIIQGPMYDVSGTAPVNVTNKMLLKQLNALEKEMIVYKAPQEKHVITVFTDITCGYCHKLHEQMADYNALGITVRYLAFPRQGLDSDAEKEMKAIWCAKDKNKAFDDVMAGKSVAPASCDVDIADHYALGVQLGVSGTPAVVLSNGTLVPGYQPPKEMKEFLDEHQKMTSGKGSTSGSGHHHHHHSAGLVPRGSCTTTHTFVKALTMDGKQAAWRFIRIDTACKKKKKKKKKK
modifications: DsbC-NL4-10K
notes: chimeric recombinant protein: NL4-10K attached to the C-terminus of DsbC, an E. coli disulfide bond isomerase
effect of pre-treatment with free protein on DsbC-NL4-10K/DNA/PEI600 transfection ([1]; 30 minutes before transfection, compared to bovine serum albumin pre-treatment): greatly reduced the transfection efficiency
N/P ratio of maximum transfection efficiency [1, 3]: 1 N/P ratio
protein/DNA ratio of maximum transfection efficiency [1, 3]: 0.3 nmol/µg
effect on protamine-mediated gene delivery [2]: did not improve gene delivery
DNA binding / retardation of DNA migration (in words) (plasmid DNA): binds to DNA but cannot fully condense it
